Article PMC6270235, “A Macrocyclic Peptide that Serves as a Cocrystallization Ligand and Inhibits the Function of a MATE Family Transporter” (Molecules, 2013)
Bridge positions count the residues as written; N and C are the ends.

Biological target: T1, Pyrococcus furiosus multidrug and toxic compound extrusion (PfMATE) transporter, wild type, His6-tagged, … (Pyrococcus furiosus, UniProt Q8U2X0 1-461)
T1 construct: PfMATE, MATE family transporter of Pyrococcus furiosus, wild type; Held in HEPES-buffered saline with 0.1% Cymal-6; also called His-tagged PfMATE; source: prepared according to literature [29]; not shown: His6, C-terminal, kept
T1 sequence (looked up): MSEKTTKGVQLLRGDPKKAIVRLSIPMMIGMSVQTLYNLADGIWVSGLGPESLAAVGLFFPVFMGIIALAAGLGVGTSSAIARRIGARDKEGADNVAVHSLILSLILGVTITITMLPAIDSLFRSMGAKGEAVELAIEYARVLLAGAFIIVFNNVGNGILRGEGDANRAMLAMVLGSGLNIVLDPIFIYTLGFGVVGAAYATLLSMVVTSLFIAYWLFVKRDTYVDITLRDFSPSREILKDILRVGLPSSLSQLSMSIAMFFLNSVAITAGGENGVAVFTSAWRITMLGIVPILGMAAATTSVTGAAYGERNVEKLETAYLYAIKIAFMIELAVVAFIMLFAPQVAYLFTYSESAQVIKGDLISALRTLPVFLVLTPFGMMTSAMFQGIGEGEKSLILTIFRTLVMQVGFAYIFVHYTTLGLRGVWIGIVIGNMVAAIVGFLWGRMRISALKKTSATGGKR
Assay: mRNA display selection round with competitor; c-Round 6: 32 µM mRNA-free synthetic MaL6 in the buffer of the binding step, 37 °C, His6-PfMATE on magnetic beads, libraries from Round 5; recovery by real-time PCR
Settings: both partners purified

B1: MaL6, chemically synthesized thioether-macrocyclic peptide, not conjugated to mRNA, with an additional C-terminal glycine-carboxamide (peptide)
peptide: {CH2CO}-FTFRYSPSLYTWFLFPCG-NH2
modifications: thioether N-17 (inferred)
notes: AcF = N-chloroacetyl-L-phenylalanine; selected from the LF-library by RaPID; additional C-terminal glycine-carboxamide; also called chemically synthesized MaL6; mRNA-free MaL6; source: synthetic peptide, HPLC purified
binding result: binds
